Measured values reported in patent US20220278152, “SPECTRALLY FILTERED PHOTODIODE PAIR” (UNIVERSITY OF MASSACHUSETTS, published 2022).

Experiments:
Interferon gamma (IFN-γ) = Interferon gamma (IFN-γ) (Homo sapiens, UniProt P01579 P01579:24-166); experiment: FRET ratiometric photodiode aptasensor; aptamer on AF555-streptavidin/biotin-BSA surface; signal change 0.1-10 pM, LOD 1 pM, saturated at 100 pM-1 nM; 1x PBS; reversible by 55 C water wash; conditions: tags: R&D Systems, recombinant human IFN-γ; chain copies: 2; label: Cy5 (5'), biotin (3'); hairpin (self-hybridizes without IFN-γ)
Sequence of Interferon gamma (IFN-γ) (P01579 24-166, one chain of several): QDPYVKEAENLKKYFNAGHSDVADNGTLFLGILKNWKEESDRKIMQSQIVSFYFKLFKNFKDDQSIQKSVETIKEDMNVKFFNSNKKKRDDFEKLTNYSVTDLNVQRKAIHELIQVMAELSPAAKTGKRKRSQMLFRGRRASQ
Source text: To package the PD array for ratiometric aptasensing experiments, a 50 μm tall PDMS microfluidic channel with one inlet and one outlet hole was fabricated via a standard SU-8 photolithography process, and then bonded the microfluidic channel over the PD array via O₂ plasma. Tubing was inserted into the inlet and outlet holes to allow for injection and removal of analytes. To achieve ratiometric aptasensing […], the surface of the array was functionalized by sequentially introducing BSA, AF555 conjugated streptavidin, and biotinylated Cy5 labeled IFN-γ DNA aptamers. After each analyte's respective incubation period, the extra unbonded analyte was removed by washing with 9 mL deionized water.
Following this surface functionalization procedure, two aptasensing experiments were conducted where, in each experiment, the device was kept in 1×PBS and sequentially introduced 0.1 pM-1 nM analyte in 15-minute intervals followed by a water washing step and reintroduced analytes and water washing as 2nd round via the microfluidic channel (FID. 10a-c). During introducing each concentration, an upright fluorescence microscope was used to illuminate the PD array with pulses of 550/15 nm excitation light (Ilight=100%, 260 mW) which have tₒₙ/toff=18/162 s (i.e., 3 min period) to alleviate the photobleaching effect. […]

Streptavidin = Streptavidin (UniProt P22629 P22629:25-183); experiment: specificity control; 0.1 pM-1 nM free streptavidin, <5% signal change, 1x PBS; biotinylated aptamer already immobilised on surface streptavidin; conditions: tags: Sigma Aldrich; chain copies: 4; label: Cy5 (5'), biotin (3'); hairpin (self-hybridizes without IFN-γ)
Sequence of Streptavidin (P22629 25-183, one chain of several): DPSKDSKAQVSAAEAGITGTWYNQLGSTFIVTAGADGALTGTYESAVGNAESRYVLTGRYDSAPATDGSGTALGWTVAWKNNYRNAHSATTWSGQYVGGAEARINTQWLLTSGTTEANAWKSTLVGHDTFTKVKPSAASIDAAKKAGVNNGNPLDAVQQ
Protocol: After each analyte's respective incubation period, the extra unbonded analyte was removed by washing with 9 mL deionized water.
Following this surface functionalization procedure, two aptasensing experiments were conducted where, in each experiment, the device was kept in 1×PBS and sequentially introduced 0.1 pM-1 nM analyte in 15-minute intervals followed by a water washing step and reintroduced analytes and water washing as 2nd round via the microfluidic channel (FID. 10a-c). During introducing each concentration, an upright fluorescence microscope was used to illuminate the PD array with pulses of 550/15 nm excitation light (Ilight=100%, 260 mW) which have tₒₙ/toff=18/162 s (i.e., 3 min period) to alleviate the photobleaching effect.
For the first experiment, streptavidin was sequentially introduced as a control to evaluate the specificity of the array. […] For the second experiment, IFN-γ was sequentially introduced to evaluate the sensibility of the array. […] Due to this conformation change, less AF555 emission light will excite the Cy5 molecules, leading to the observed increase [decrease] in AF555 [Cy5] pixel signals.

B1: IFN-γ DNA aptamer (ssDNA)
DNA: GGGGTTGGTTGTGTTGGGTGTTGTGTCCAACCCCTTT
modifications: 5' Cy5, 3' biotin [1 (5' Cy5), 37 (3' biotin)]
Interferon gamma (IFN-γ)
  binding result: binds
Streptavidin
  binding result: no binding
